Results reported in US20220106400A1.

Experiments:
hCD64 (FcgRI) (human) [1] = target: hCD64 (FcgRI) (human) (UniProt P12314); assay: told in the description as a result of the Examples; method not given
hCD64 (FcgRI) (human) [2] = target: hCD64 (FcgRI) (human) (UniProt P12314); assay: FcR binding, Example 16
[3] = target: human GITR on activated human CD4 T cells (human) (UniProt Q9Y5U5); assay: FACS binding to anti-CD3/CD28-activated human CD4 T cells
human GITR on activated human CD4 T cells (human), sequence (Q9Y5U5 26-241): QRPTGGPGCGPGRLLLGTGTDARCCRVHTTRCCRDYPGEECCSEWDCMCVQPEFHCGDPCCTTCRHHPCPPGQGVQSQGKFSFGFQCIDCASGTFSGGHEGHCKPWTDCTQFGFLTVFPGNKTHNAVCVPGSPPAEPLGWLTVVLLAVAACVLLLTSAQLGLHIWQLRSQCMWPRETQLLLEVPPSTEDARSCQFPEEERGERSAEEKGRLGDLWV

hCD64 (FcgRI) (human), sequence (P12314 16-288 limits assumed): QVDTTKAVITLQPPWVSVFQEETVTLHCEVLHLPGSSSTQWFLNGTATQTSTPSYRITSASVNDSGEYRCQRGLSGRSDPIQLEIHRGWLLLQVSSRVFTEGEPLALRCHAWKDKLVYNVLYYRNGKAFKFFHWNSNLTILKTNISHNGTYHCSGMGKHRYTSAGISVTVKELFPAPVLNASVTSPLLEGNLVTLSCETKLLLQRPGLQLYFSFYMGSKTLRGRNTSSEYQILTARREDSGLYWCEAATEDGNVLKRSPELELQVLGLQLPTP

| EC50 [3] [µM] | Substance | further results |
| --- | --- | --- |
|  | antibody with IgG1 P238K (Example 13) | fold reduction of binding relative to wildtype IgG1 (hCD64 (FcgRI) (human) [1]): 100 fold |
|  | antibody with IgG1f-L235E-P238K heavy chain constant domain (Example 16) | fold reduction of CD64 binding against P238K alone (hCD64 (FcgRI) (human) [2]): 1000 fold |
| 0.132 | unrelated hIgG1 |  |
| 0.00673 | unrelated hIgG2 |  |
